Assay results from patent publication US8158376B2, “Bisubstrate fluorescent probe binding to protein kinases” (University of Tartu, priority 2006, dated 2012).
Read-outs that look alike come from different tables or passages of the source.

Legend:
Assay in all cases: Kinase selectivity panel
Assay type in all cases: biochemical
JNK/SAPK1c = JNK/SAPK1c (Homo sapiens, UniProt P45983); conditions: inhibitor 1 μM; ATP 20 μM; read-out: residual activity (%) JNK/SAPK1c
Protocol: (§1) The panel of kinases included all 52 kinases available for testing. To the best of our knowledge, the selectivity profiling has not been carried out with a wide panel of PK before for bisubstrate-type inhibitors.
(§2) The assay of protein kinases was performed at 30° C. as described previously [Davies et al., Biochem. J. 351 (2000) 95; Murray et al., Biochem. J. 384 (2004) 477]. The results of the testing are expressed as the % of residual activity of the kinase in the presence of the inhibitor at 1 micromolar concentration.

SAPK2b/p38β2 = SAPK2b/p38β2 (Homo sapiens, UniProt Q15759); conditions: inhibitor 1 μM; ATP 20 μM; read-out: residual activity (%) SAPK2b/p38β2
Sequence of SAPK2b/p38β2 (Q15759 whole entry): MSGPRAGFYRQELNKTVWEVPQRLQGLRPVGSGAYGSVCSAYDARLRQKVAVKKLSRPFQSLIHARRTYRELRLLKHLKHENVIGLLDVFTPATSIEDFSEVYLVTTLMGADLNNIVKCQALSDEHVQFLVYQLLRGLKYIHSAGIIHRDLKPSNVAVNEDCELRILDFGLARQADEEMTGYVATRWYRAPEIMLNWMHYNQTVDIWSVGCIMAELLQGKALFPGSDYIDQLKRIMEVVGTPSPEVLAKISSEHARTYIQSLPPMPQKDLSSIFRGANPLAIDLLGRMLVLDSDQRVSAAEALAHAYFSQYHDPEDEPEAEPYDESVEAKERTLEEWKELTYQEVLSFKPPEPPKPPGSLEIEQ
Protocol: as §1, §2

MAPK2/ERK2 = MAPK2/ERK2 (Homo sapiens, UniProt P28482); conditions: inhibitor 1 μM; ATP 50 μM; read-out: residual activity (%) MAPK2/ERK2
Sequence of MAPK2/ERK2 (P28482 whole entry): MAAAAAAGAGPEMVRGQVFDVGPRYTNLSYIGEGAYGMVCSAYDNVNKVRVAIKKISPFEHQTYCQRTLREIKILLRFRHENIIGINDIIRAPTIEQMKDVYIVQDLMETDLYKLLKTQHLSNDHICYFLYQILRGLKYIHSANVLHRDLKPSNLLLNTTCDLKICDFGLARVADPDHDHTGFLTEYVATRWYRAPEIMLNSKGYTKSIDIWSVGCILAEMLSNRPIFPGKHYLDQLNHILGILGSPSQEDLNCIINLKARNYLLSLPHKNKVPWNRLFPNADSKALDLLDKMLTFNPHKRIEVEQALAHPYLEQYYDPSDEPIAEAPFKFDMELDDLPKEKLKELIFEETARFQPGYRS
Protocol: as §1, §2

SAPK4/p38d = molecular target: T1, SAPK4/p38d (Homo sapiens, UniProt O15264); conditions: inhibitor 1 μM; ATP 5 μM; read-out: residual activity (%) SAPK4/p38d
T1 sequence (O15264 1-365): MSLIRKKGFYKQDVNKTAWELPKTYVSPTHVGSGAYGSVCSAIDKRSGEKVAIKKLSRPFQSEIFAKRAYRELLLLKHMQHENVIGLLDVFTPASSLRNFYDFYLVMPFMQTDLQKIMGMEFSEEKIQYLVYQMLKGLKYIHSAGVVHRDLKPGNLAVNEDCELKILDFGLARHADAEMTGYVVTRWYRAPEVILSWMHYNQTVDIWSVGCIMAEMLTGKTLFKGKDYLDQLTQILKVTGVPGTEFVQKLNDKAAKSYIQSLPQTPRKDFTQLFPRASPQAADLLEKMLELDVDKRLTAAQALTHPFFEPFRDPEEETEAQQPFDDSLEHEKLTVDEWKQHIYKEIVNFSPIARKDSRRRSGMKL
Protocol: as §1, §2

CDK2/cyclin A = CDK2/cyclin A (Homo sapiens, UniProt P24941); conditions: inhibitor 1 μM; ATP 20 μM; read-out: residual activity (%) CDK2/cyclin A
Protocol: as §1, §2

SAPK3/p38g = molecular target: T2, SAPK3/p38g (Homo sapiens, UniProt P53778); conditions: inhibitor 1 μM; ATP 5 μM; read-out: residual activity (%) SAPK3/p38g
T2 sequence (P53778 1-367): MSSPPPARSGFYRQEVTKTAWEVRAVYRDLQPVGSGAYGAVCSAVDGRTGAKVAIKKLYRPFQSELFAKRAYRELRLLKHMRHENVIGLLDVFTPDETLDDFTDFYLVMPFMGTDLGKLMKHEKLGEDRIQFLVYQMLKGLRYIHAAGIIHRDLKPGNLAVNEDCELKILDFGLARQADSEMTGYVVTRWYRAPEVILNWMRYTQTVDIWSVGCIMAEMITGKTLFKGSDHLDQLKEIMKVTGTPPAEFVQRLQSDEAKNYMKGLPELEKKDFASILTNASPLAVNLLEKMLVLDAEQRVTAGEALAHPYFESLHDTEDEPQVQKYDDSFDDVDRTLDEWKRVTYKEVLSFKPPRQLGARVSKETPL
Protocol: as §1, §2

SAPK2a/p38 = SAPK2a/p38 (Homo sapiens, UniProt Q16539); conditions: inhibitor 1 μM; ATP 50 μM; read-out: residual activity (%) SAPK2a/p38
Sequence of SAPK2a/p38 (Q16539 whole entry): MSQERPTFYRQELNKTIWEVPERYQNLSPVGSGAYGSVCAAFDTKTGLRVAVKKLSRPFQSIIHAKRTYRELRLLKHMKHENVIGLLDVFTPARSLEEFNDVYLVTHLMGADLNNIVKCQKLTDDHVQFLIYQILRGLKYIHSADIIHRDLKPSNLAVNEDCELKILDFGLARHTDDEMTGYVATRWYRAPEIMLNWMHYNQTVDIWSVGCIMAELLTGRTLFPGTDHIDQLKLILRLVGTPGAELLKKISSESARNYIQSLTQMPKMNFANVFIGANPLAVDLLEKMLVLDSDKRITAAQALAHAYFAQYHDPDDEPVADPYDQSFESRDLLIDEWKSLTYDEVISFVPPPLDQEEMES
Protocol: as §1, §2

PLK1 = PLK1 (Homo sapiens, UniProt P53350); conditions: read-out: residual activity (%) PLK1
Sequence of PLK1 (P53350 whole entry, species assumed): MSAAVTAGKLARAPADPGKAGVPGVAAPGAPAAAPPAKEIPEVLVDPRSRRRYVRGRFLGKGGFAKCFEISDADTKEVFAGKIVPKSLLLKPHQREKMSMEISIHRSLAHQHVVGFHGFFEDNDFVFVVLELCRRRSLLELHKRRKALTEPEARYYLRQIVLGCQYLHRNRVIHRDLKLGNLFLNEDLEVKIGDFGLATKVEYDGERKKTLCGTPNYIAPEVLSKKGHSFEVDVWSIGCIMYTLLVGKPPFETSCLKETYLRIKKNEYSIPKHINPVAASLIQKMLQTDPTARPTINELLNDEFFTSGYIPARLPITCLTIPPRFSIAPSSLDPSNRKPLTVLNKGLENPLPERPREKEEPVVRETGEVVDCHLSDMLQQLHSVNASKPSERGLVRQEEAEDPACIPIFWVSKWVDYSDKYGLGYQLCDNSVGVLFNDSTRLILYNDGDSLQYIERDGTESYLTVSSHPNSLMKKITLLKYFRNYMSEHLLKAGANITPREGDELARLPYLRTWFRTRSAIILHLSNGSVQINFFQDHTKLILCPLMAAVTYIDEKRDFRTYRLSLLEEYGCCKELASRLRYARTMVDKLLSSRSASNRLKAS
Protocol: (§3) The panel of kinases included all 52 kinases available for testing.
(§4) The assay of protein kinases was performed at 30° C. as described previously [Davies et al., Biochem. J. 351 (2000) 95; Murray et al., Biochem. J. 384 (2004) 477].

PKCa = PKCa (Homo sapiens, UniProt P17252); conditions: read-out: residual activity (%) PKCa
Protocol: as §3, §4

NEK6 = NEK6 (Homo sapiens, UniProt Q9HC98); conditions: read-out: residual activity (%) NEK6
Sequence of NEK6 (Q9HC98 whole entry, species assumed): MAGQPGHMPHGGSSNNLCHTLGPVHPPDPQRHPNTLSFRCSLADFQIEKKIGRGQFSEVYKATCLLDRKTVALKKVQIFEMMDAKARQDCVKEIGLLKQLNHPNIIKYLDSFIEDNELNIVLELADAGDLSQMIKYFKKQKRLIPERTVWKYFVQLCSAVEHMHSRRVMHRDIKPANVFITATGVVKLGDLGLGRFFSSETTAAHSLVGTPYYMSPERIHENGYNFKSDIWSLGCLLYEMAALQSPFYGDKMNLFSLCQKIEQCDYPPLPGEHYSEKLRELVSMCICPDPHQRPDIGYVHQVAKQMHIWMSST
Protocol: as §3, §4

CHK2 = CHK2 (Homo sapiens, UniProt O96017); conditions: read-out: residual activity (%) CHK2
Sequence of CHK2 (O96017 whole entry, species assumed): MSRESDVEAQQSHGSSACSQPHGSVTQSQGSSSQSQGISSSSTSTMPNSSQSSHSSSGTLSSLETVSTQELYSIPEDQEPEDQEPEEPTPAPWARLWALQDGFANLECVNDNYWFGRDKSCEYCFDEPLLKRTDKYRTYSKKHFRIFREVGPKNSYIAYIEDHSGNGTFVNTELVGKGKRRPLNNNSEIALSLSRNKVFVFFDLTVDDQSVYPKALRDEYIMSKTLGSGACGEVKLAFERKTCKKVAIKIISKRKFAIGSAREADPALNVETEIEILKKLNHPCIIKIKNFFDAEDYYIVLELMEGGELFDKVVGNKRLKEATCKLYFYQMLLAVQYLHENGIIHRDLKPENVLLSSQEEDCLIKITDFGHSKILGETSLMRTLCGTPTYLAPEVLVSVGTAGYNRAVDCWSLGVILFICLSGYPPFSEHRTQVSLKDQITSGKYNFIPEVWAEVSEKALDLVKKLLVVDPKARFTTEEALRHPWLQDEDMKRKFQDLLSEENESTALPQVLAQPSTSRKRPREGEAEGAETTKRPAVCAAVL
Protocol: as §3, §4

DYRK1a = DYRK1a (Homo sapiens, UniProt Q13627); conditions: read-out: residual activity (%) DYRK1a
Protocol: as §3, §4

PRK2 = PRK2 (Homo sapiens, UniProt Q16513); conditions: read-out: residual activity (%) PRK2
Sequence of PRK2 (Q16513 whole entry, species assumed): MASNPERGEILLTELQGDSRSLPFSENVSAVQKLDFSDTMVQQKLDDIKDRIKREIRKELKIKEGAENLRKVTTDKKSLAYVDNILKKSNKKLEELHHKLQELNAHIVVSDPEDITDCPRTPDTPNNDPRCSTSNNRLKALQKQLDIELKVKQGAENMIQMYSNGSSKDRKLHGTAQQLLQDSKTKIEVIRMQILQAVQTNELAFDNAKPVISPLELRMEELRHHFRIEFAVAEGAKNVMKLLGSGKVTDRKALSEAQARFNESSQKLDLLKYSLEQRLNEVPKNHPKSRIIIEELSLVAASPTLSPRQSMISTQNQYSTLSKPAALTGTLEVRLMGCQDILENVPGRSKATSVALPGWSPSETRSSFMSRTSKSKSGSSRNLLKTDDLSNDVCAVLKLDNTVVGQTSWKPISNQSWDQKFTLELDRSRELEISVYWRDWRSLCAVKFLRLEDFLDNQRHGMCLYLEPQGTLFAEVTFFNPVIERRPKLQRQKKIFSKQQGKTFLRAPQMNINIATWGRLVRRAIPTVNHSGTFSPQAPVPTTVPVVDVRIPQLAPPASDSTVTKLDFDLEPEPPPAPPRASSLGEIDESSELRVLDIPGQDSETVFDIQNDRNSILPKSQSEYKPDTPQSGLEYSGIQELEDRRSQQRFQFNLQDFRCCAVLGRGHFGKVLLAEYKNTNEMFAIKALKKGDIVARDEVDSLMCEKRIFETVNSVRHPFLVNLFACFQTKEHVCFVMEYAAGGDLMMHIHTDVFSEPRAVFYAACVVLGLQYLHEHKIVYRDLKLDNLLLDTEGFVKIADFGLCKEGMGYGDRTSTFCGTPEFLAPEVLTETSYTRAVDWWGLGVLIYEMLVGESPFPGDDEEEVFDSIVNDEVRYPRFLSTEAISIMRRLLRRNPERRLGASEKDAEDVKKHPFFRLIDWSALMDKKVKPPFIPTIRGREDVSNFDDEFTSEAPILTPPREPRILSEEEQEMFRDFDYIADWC
Protocol: as §3, §4

Sequence of JNK/SAPK1c (P45983 whole entry): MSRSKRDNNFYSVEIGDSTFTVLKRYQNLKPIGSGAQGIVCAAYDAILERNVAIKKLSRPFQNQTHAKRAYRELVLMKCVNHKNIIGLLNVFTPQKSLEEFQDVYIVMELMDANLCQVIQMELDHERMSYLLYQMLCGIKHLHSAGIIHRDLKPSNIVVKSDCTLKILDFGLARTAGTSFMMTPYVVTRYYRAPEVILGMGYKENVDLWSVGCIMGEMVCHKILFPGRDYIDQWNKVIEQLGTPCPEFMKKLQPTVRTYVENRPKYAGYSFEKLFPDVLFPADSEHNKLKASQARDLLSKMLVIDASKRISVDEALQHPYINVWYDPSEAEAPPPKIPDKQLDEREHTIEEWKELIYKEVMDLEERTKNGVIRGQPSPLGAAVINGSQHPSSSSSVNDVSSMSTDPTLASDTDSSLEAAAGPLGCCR

Compound	remaining activity at 1 µM (JNK/SAPK1c) [%]	remaining activity at 1 µM (SAPK2b/p38β2) [%]	remaining activity at 1 µM (MAPK2/ERK2) [%]	remaining activity at 1 µM (SAPK4/p38d) [%]	remaining activity at 1 µM (CDK2/cyclin A) [%]	remaining activity at 1 µM (SAPK3/p38g) [%]	remaining activity at 1 µM (SAPK2a/p38) [%]	remaining activity at 1 µM (PLK1; inhibitor 1 μM, ATP 5 μM) [%]	remaining activity at 1 µM (PKCa; inhibitor 1 μM, ATP 20 μM) [%]	remaining activity at 1 µM (NEK6; inhibitor 1 μM, ATP 50 μM) [%]	remaining activity at 1 µM (CHK2; inhibitor 1 μM, ATP 20 μM) [%]	remaining activity at 1 µM (DYRK1a; inhibitor 1 μM, ATP 50 μM) [%]	remaining activity at 1 µM (PRK2; inhibitor 1 μM, ATP 5 μM) [%]	remaining activity at 1 µM (PLK1) [%]	remaining activity at 1 µM (PKCa) [%]	remaining activity at 1 µM (NEK6) [%]	remaining activity at 1 µM (CHK2) [%]	remaining activity at 1 µM (DYRK1a) [%]	remaining activity at 1 µM (PRK2) [%]
N=C(N)NCCC[C@@H](NC(=O)[C@@H](CCCNC(=N)N)NC(=O)[C@@H](CCCNC(=N)N)NC(=O)[C@@H](CCCNC(=N)N)NC(=O)[C@@H](CCCNC(=N)N)NC(=O)[C@@H](CCCNC(=N)N)NC(=O)CCCCCNCCNS(=O)(=O)c1cccc2cnccc12)C(N)=O [Compound 26, H9-Hex(D-Arg)6-NH2]	75	80	95	93	73	99	76	76	15	100	22	69	2	–	–	–	–	–	–
N=C(N)NCCC[C@@H](NC(=O)[C@@H](CCCNC(=N)N)NC(=O)[C@@H](CCCNC(=N)N)NC(=O)[C@@H](CCCNC(=N)N)NC(=O)[C@@H](CCCNC(=N)N)NC(=O)[C@@H](CCCNC(=N)N)NC(=O)CCCCCNC(=O)[C@H]1O[C@@H](n2cnc3c(N)ncnc32)[C@H](O)[C@@H]1O)C(N)=O [Compound 5, AdcAhx(D-Arg)6-NH2]	70	85	100	107	88	111	79	–	–	–	–	–	–	81	31	94	14	72	2
